Measurements reported in patent publication US11001846B2, “Aptamers, nucleic acid molecules, polynucleotides, synthetic antibodies compositions for detecting PRRS viruses and treating PRRS virus infection” (AEROVIRUS TECHNOLOGIES INC., priority 2015, dated 2021).
Where “and” joins values, the source holds several entries; their conditions need not be identical. Identical values can stand only once.

How the values were obtained:
[1] = tested on: type-1 Lelystad PRRS virus; test: Strain-specific neutralization (FIG. 11), type 1 strain; type: cell-based, PRRSV
Method: (§1) In Vitro Viral Protection Prior to Viral Infection PAMs or MARC-145 cells were plated on 96 well plates (7×10^4/well) 24 hours prior to the experiment. Each well was washed twice with DPBS prior to treating the cells with various amounts of A505 (12.5 to 2000 pmole) at 37° C. for the indicated time points. Cells were then washed twice with DPBS and infected with 500 TCID50 LHVA-3 (or NVSL or VR-2332 or Lelystad) for 1 hour in enriched HBSS. Following incubation, cells were transferred to growth medium and incubated at 37° C. for 72 hours. Thereafter an MTT assay was implemented as described.

type 2 PRRSV = conditions: after MTT screening of 10 candidates
From the text: Using various tetrazolium (MTT) colorimetric assay procedures^[xxxvi], these aptamers have been “screened” to identify the ones having the highest and fastest binding capabilities for detection and therapeutics purposes for both types of PRRSV. It should be pointed out that the aptamer having the quickest binding efficiency but not necessarily the highest binding strength is the most suitable one for the biosensor.

various PRRSV strains = test: In-vivo protection of swine against various PRRSV strains (Example 4); conditions: 15 ug/Kg, treatment on the day of infection; each strain 40TCID50/ml; FIG. 13a
Method: (§2) Swine were inoculated intranasally with sub-lethal infectious fluid containing 40TCID50/ml PRRS virus (LHVA-93-3) with or without 2.5 nmole A505 aptamer for different time intervals. Pig body weight was monitored for 2 weeks. Viral titer in the lungs was determined by the CPE titration method (OIE Terrestrial Manual—May 2015, Chapter 2.8.7—Porcine Reproductive and Respiratory Syndrome, section 1.1.3). Other pigs were sacrificed 6 days following viral inoculation and lungs were removed and homogenized in PBS 0.1% BSA (10% w/v). Following homogenization, samples were centrifuged to remove debris and stored at −80° C.
(§3) The cells/viruses were incubated for 2-5 days and observe daily for a CPE. At day 2, seed macrophages in new microtitre plates. Fifty (50) μl of the supernatants were transferred from the plates of the first passage to the corresponding wells of the freshly seeded plates (second passage). The wells were incubated for 2-5 days and observed daily for a CPE. The results of the CPE assays were presented as log TCID50.
(§4) Were implemented as described hereinabove. A dose of 15 ug/Kg of A505 was used.

NVSL PRRS virus = test: MTT assay, in vitro protection of PAMs or MARC-145 cells from NVSL infection; type: cell-based, PRRSV; conditions: 500 pmole, compared to non-infected MARC-145 cells, FIG. 9b
Method: PAMs or MARC-145 cells were plated in 96 well plates (7×10^4/well) one day prior to the assay. Cells were washed twice with Dulbecco's phosphate buffered saline (DPBS) prior to an one (1) hour incubation with Hank's balanced salt solution (HBSS) supplemented with 25 mM HEPES and 4 mM sodium bicarbonate (pH 7.3) including 500TCID50 of LHVA-3 or 500TCID50 of NVSL in the presence or absence of the indicated aptamer concentration. Following infection, cells were incubated in growth medium at 37° C. for 72 hours. MTT assay was performed by adding 4 mg/ml MTT (3-[4,5-Dimethylthiazol-2-yl]-2,5-diphenyltetrazolium bromide dissolved in PBS to the cell cultures and incubation at 37° C. for 3 hours. Plates were then centrifuged at 800×g for 10 min. Supernatants were aspirated and the formazan dye was dissolved in 150 μl/well of isopropyl alcohol, and O.D. values were determined with an ELISA reader at 570 nm.
as §1, with “Following incubation, cells were transferred to growth medium and incubated at 37° C. for 72 hours. Thereafter an MTT assay was implemented as described.” left out

LHVA-93-3 PRRS virus [2] = test: In-vivo protection of swine from PRRSV infection (Example 3)
Method: Swine—SPF American Yorkshire swine at the age of 10-12 weeks were purchased. The selected swine were all exempt of PRRSV, SIV, and Mycoplasma Hyopneumoniae.
as §2, §3
For lung histology, pigs were sacrificed at day 7 and lungs were removed into 10% neutral buffered formalin (pH 7.0). Lungs were then sectioned and stained with haemotoxylin and eosin.
The antiviral properties of A505 were determined in vivo prior to and following viral infection. Briefly, the swine were divided into four groups designated ‘untreated’, ‘0 day’, ‘+1 day’ and ‘+2 day’. Each pig was challenged with 40 TCID50/ml of LHVA-93-3 PRRS viruses. Pigs in ‘0 day’ group were inoculated with a mixture of the virus and 2.5 μmole/ml A505, intranasally (i.n.). Pigs in ‘+1 day’ and ‘+2 day’ groups were inoculated with 2.5 μmole/ml A505, in 1 day or 2 days following virus infection, respectively. PRRS infection was monitored by three parameters, including (i) body weight loss during 14 days following virus treatment; (ii) lung virus titre; (iii) histological examination of lungs—sections were taken 7 days following virus inoculation.

MARC-145 cells = conditions: no virus; FIG. 10c
LHVA-93-3 PRRS virus [3] = test: In-vivo lung virus titer, LHVA-93-3, comparison with control oligonucleotide and Tilmicosin (Example 4); design: species or system swine; conditions: intra-nasal
Method: as §2, §3
Tilmicosin (Pulmotil®) was purchased from Eli Lilly (Elanco®), Canada.
as §4
The ability of the A505 aptamer to inhibit PRRSV infection was also compared to that of one of the currently available “anti-PRRSV” drugs, the antibiotic Tilmicosin. To this end, both A505 and Tilmicosin were administered once, together with the virus, using the intra-nasal route. As is shown in Table 2 below, a dose of 60 mg/pig of Tilmicosin (1 mg/kg body weight) reduced virus titer by 0.42 log TCID50, representing a 2.6-fold reduction in virus burden. This is in comparison to a reduction by 1.21 log TCID50 affected by A505 in this particular experiment (over 10 fold reduction in virus burden).

LHVA-93-3 PRRS virus [4] = test: Light microscopy and immunofluorescence of infected cells; type: cell-based, PRRSV
[5] = tested on: type 2 PRRSV (VR2332, LHVA-93-3, NVSL-93-2335); test: Strain-specific neutralization (FIG. 11), type 2 strains; type: cell-based

B1: A505: ssDNA aptamer binding type 2 PRRSV M-S-S-GP5 complex (nucleic acid)
DNA: GGGCGACCCTGAAGAGTTTGTAATCTGCGATTTTAAAGTTGAGTCGTCGCGAAACGGTGAAAGCCGTAGGTTGCCC
modifications: DNA, backbone and methylation of C not given here
[1]
  effect on type-1 Lelystad PRRS virus: has not effect
Type 2 PRRSV
  binding capabilities from biosensing and therapeutic perspectives: highest binding capabilities
Various PRRSV strains
  prevention of infection (lung virus titer) by various strains: efficient in preventing the infection by all tested strains of PRRSV
NVSL PRRS virus
  protection against infection of the cells: ~70%
LHVA-93-3 PRRS virus [2]; 14 days, treatment groups +2 day, 0 day, +1 day vs control group, FIG. 12a
  body weight loss: significantly lower weight loss and enhanced recovery
LHVA-93-3 PRRS virus [2]; '0 day' group
  protection equivalent to lung virus titer difference: over 99%
LHVA-93-3 PRRS virus [2]; '0 day' group, 2.5 μmole/ml A505 i.n. mixed with virus, 40 TCID50/ml, FIG. 12b
  difference in lung virus titer compared to the non-treated group: more than 2 log
LHVA-93-3 PRRS virus [2]; '+1 day' and '+2 day' groups
  protection in lung virus titer, treatment after infection: Further protection
LHVA-93-3 PRRS virus [2]; all three A505-treated groups, six days after infection, p<0.05, FIG. 12b
  reduction of viral load in the lungs vs infected group: statistically significant
LHVA-93-3 PRRS virus [2]; sections 7 days after virus inoculation, intranasal A505
  lung histology, inflamed areas: reduces the inflamed areas in lungs
MARC-145 cells
  morphology of cells treated with aptamer alone: did not affect the morphology of the cells
LHVA-93-3 PRRS virus [3]; Table 2, administered once with the virus
  Reduction Factor: 17.1
LHVA-93-3 PRRS virus [3]; administered once together with the virus, Tilmicosin 60 mg/pig (1 mg/kg), A505 15 ug/Kg
  Δ (log TCID50), reduction of virus titer: 1.21 log TCID50 and 1.23 log TCID50
LHVA-93-3 PRRS virus [3]; administered once with the virus
  reduction in virus burden: over 10 fold
LHVA-93-3 PRRS virus [4]; MARC-145 cells, virus in the presence of aptamer, FIG. 10b
  cell morphology of infected cells, light microscopy: destruction was inhibited and the cell morphology was largely conserved
LHVA-93-3 PRRS virus [4]; two days incubation with virus and aptamer, FIG. 10e
  viral presence by immunofluorescence: almost entirely prevented
[5]
  neutralization of PRRS virus strains: only the type 2 PRRSV have been neutralized
